According to patent publication US20250011363A1, “OPTIMIZED SHORTENED PEPTIDE THAT BINDS TO ACETYLCHOLINE RECEPTOR, AND USE THEREOF” (SKINMED CO., LTD., priority 2021, published 2025):

target: acetylcholine receptor; test: SPR, AchR immobilised on chip, peptide 10 uM

Binding affinity (RU)	Binder
18	KKSHR [5mer-1103]
24	RPWKR [5mer-1100]
24	KDKPR [5mer-799]
27	RITVR [5mer-802]
11	RFSDR [5mer-803]
20	KTHKK [5mer-1102]
14	RATAR [5mer-1099]
29	KEAPR [5mer-800]
20	KFHGR [5mer-801]
11	KYKNR [5mer-1101]

target: acetylcholine receptor; test: SPR, AchR on chip, peptide 10 uM

Binder	Binding affinity (RU)
KGVCK [5mer-15]	75
KSYYR [5mer-306]	74
RGYTK [5mer-242]	64
KVRCR [5mer-241]	51
KQVLK [5mer-238]	58
KRFLR [5mer-4]	58
KVVYK [5mer-25]	60
KRLYR [5mer-239]	61
KRIYK [5mer-17]	70
KLFLR [5mer-5]	54
KSFTR [5mer-246]	60
KWRYR [5mer-240]	51
KLYTK [5mer-16]	66
RWLCK [5mer-14]	63
KWLYK [5mer-23]	86
RGRYK [5mer-20]	78
KSVSK [5mer-244]	78
RRILK [5mer-302]	70
RWYLK [5mer-248]	63
KQRLR [5mer-11]	84

Binder	Binding affinity (RU)
RGVQR [5mer-9]	77
KRVLK [5mer-3]	66
RLISK [5mer-13]	52
RSVRK [5mer-304]	76
KSQCR [5mer-24]	67
KWFTR [5mer-21]	63
RQLRR [5mer-18]	69
RQQLK [5mer-22]	66
RVFLR [5mer-12]	70
KRFQR [5mer-19]	72
RVQRR [5mer-10]	55
RQLTK [5mer-7]	54
RWYCR [5mer-247]	80
RWQQK [5mer-6]	61
RQRSK [5mer-245]	62
KGRYR [5mer-303]	87
KRICK [5mer-305]	72
KLLSK [5mer-243]	51
RQRSR [5mer-8]	51

Further lines, results first:

Binding affinity (RU)	Binder
74	RQFYR [5mer-540]
59	RLRLR [5mer-537]
73	KQYLR [5mer-316]
86	RRVQR [5mer-317]
64	KRVCK [5mer-318]
70	RVVTR [5mer-539]
65	RLRLK [5mer-543]
50	KRIQR [5mer-325]
60	KWLCK [5mer-548]
72	KQQQR [5mer-538]
63	RLQLR [5mer-544]
84	RRQSR [5mer-322]
77	KQVTK [5mer-547]
68	RSLSR [5mer-321]
78	KSRQR [5mer-310]
85	KRYTR [5mer-542]
80	KVFLK [5mer-541]
77	KWYYR [5mer-323]
80	RWYTR [5mer-314]
81	KRYCR [5mer-312]
58	KSQRR [5mer-324]
75	RVVQR [5mer-320]
75	RSQLK [5mer-313]
74	RVQTR [5mer-319]
77	KLFSR [5mer-315]
80	KGQYR [5mer-545]
65	KVVLK [5mer-546]
70	KVQYR [5mer-309]
82	KQRCK [5mer-307]
84	RLRCR [5mer-308]
